Test results from paper PMC2633459 (Molecular Vision, 2009).
Numbering of substitutions follows the chain as printed. Names may count otherwise. “And” between values parts separate entries of the source, which are not always exact repeats. Equal values may be shown once.

B1: wild type human βB1-crystallin (natural protein, UniProt P53674 1-252, looked up)
chain: MSQAAKASASATVAVNPGPDTKGKGAPPAGTSPSPGTTLAPTTVPITSAKAAELPPGNYRLVVFELENFQGRRAEFSGECSNLADRGFDRVRSIIVSAGPWVAFEQSNFRGEMFILEKGEYPRWNTWSSSYRSDRLMSFRPIKMDAQEHKISLFEGANFKGNTIEIQGDDAPSLWVYGFSDRVGSVKVSSGTWVGYQYPGYRGYQYLLEPGDFRHWNEWGAFQPQMQSLRRLRDKQWHLEGSFPVLATEPPK
notes: human βB1-crystallin, wild type, recombinant; Mixture of monomers and dimers at the concentrations of the 1:1 experiments; dimer at the higher concentration of the 5:1 experiment; source: E. coli, purified (successive ion-exchange chromatography)
B2: wild type human βA3-crystallin (natural protein, UniProt P05813 1-215, looked up)
chain: METQAEQQELETLPTTKMAQTNPTPGSLGPWKITIYDQENFQGKRMEFTSSCPNVSERSFDNVRSLKVESGAWIGYEHTSFCGQQFILERGEYPRWDAWSGSNAYHIERLMSFRPICSANHKESKMTIFEKENFIGRQWEISDDYPSLQAMGWFNNEVGSMKIQSGAWVCYQYPGYRGYQYILECDHHGGDYKHWREWGSHAQTSQIQSIRRIQQ
notes: human βA3-crystallin, wild type, recombinant; no tag is mentioned; also called WT βA3; βA3 WT; source: E. coli, purified (successive ion-exchange chromatography)
B3: doubly deamidated mutant βA3 Q85E/Q180E (natural protein, human, UniProt P05813 1-215, looked up)
chain: B2 chain with Q85E, Q180E
notes: human βA3-crystallin with Q85E and Q180E (mimic of deamidation), recombinant; Homo-dimer by SEC-MALS at 37 °C; precipitates at 55 °C when alone; also called DM βA3; βA3 DM; source: E. coli, purified (successive ion-exchange chromatography)
B4: wild type human βB2-crystallin (natural protein, UniProt P43320 1-205, looked up)
chain: MASDHQTQAGKPQSLNPKIIIFEQENFQGHSHELNGPCPNLKETGVEKAGSVLVQAGPWVGYEQANCKGEQFVFEKGEYPRWDSWTSSRRTDSLSSLRPIKVDSQEHKIILYENPNFTGKKMEIIDDDVPSFHAHGYQEKVSSVRVQSGTWVGYQYPGYRGLQYLLEKGDYKDSSDFGAPHPQVQSVRRIRDMQWHQRGAFHPSN
notes: human βB2-crystallin, wild type, recombinant; source: E. coli, purified (successive ion-exchange chromatography)

Tests used:
[1] = target: the molecule itself; test: SEC-MALS; each crystallin alone, incubated 90 min at 37 °C; Superose 12 10/300 GL; pH 6.8, 29 mM Na2HPO4, 29 mM NaH2PO4, 100 mM KCl, 1 mM EDTA, 1 mM DTT
[2] = target: the molecule itself; test: SEC-MALS; 5:1 molar ratio of βB1 to βA3 (to favour the βB1 dimer), injected immediately (0 min) or after 30 min at 37 °C; same buffer
[3] = target: B1; test: SEC-MALS; 1:1 molar ratio of βA3 (WT or DM) with βB1 or βB2, final 0.4–0.5 mg/ml, incubated 90 min at 55 °C; filtered before injection; same buffer; conditions: both partners purified
[4] = target: B3; test: native gel or EMSA; blue-native PAGE, 4%–12% Bis-Tris gel, pH 7.0, 200 V, 4 °C; mixtures incubated at 37 °C for 60 min before the gel; conditions: both partners purified

Binder | stoichiometry N [1] | stoichiometry N [2] | binding result [3] | binding result [4]
B1 | 2 |  |  | 
B2 |  | 2 | binds | 
B3 | 2 |  |  | 
B4 | 2 and 4 |  |  | binds
